Paper PMC2749821 (2009)
Values belong to the binder of their own block, whether it stands above or below them.

Columns and labels:
BMPR1B = target: T1, BMPR1B (Mus musculus (Mouse), UniProt P36898); experiment: SPR 1:1 (ligand immobilised, monomeric ECD analyte)
T1 chain: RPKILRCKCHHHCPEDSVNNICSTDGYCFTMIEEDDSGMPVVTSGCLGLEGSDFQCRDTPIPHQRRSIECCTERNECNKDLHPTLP

ACVR2B = target: T2, ACVR2B (Mus musculus (Mouse), UniProt P27040); experiment: as above
T2 chain: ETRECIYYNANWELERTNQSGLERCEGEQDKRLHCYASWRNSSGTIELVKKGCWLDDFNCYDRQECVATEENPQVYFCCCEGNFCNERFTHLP

Kd (BMPR1B): > 64 µM
Kd (ACVR2B): 0.088 µM
B1: ActivinA (protein)
chain 1: GLECDGKVNICCKKQFFVSFKDIGWNDWIIAPSGYHANYCEGECPSHIAGTSGSSLSFHSTVINHYRMRGHSPFANLKSCCVPTKLRPMSMLYYDDGQNIIKKDIQNMIVEECGCS
chain 2: B1 chain 1

Kd (BMPR1B): 0.75 µM
Kd (ACVR2B): 2.5 µM
B2: BMP7 (protein)
chain 1: DQRQACKKHELYVSFRDLGWQDWIIAPEGYAAYYCEGECAFPLNSYMNATNHAIVQTLVHFINPETVPKPCCAPTQLNAISVLYFDDSSNVILKKYRNMVVRACGCH
chain 2: B2 chain 1
